The numbers were not newly measured in article PMC10772121, which cites them from elsewhere.

One series deals with KIR2DS4 (Homo sapiens) (UniProt P43632). Put plainly: ELISA. (ELISA stands for enzyme-linked immunosorbent assay.)
In another series the target is KIR2DL2 (Homo sapiens) (UniProt P43627). As to the kind of experiment: ELISA.
KIR2DL2 (Homo sapiens), sequence (P43627 22-245): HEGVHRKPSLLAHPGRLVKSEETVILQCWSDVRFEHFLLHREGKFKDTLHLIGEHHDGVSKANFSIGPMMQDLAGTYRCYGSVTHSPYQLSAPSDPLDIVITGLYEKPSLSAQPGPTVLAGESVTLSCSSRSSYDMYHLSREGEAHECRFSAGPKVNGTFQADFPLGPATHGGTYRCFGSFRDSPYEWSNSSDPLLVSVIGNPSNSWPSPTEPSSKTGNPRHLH

KIR2DS4 (Homo sapiens), sequence (P43632 22-245): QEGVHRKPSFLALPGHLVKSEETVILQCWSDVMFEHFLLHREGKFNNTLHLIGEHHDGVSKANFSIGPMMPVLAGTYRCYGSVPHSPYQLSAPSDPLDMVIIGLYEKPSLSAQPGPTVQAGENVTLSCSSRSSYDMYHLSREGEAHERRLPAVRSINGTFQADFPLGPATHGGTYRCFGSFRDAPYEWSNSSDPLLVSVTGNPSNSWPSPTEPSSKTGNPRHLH

As usually defined, the Kd is the concentration at which binding is half-saturated. In the case of Lirilumab, the Kd with KIR2DS4 (Homo sapiens) is 20 nM; in the series with KIR2DL2 (Homo sapiens) it was 0.06 nM.
